Data on 39 sequences can be found in the supplement of paper PMC7877785.

The data set in a line: self-splicing fitness, log relative to wild type (ln ratio); higher = more splicing; Tetrahymena group I intron in knt gene, E. coli kanamycin selection, DiMSum; sequences stand for … in CUCUCU…GGAGGGAAAAGUUAUCAGGCAUGCACCUGGUAGCUAGUCUUUAAACCAAUAGAUUGCAUCGGUUUAAAAGGCAAGACCGUCAAAUUGCGGGAAAGGGGUCAACAGCCGUUCAGUACCAAGUCUCAGGGGAAACUUUGAGAUGGCCUUGCAAAGGGUAUGGUAAUAAGCUGACGGACAUGGUCCUAACCACGCAGCCAAGUCCUAAGUCAACAGAUCUUCUGUUGAUAUGGAUGCAGUUCACAGACUAAAUGUCGGUCGGGGAAGAUGUAUUCUUCUCAUAAGAUAUAGUCGGACCUCUCCUUAAUGGGAGCUAGCGGAUGAAGUGAUGCAACACUGGAGCCGCUGGGAACUAAUUUGUAUGCGAAAGUAUAUUGAUUAGUUUUGGAGUACUCGUGGUCG
The gist of the method: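 Pooled colonies went to amplicon sequencing on an Illumina HiSeq 2500 after six replicate transformations. The plates were LB agar with 100 μg/mL carbenicillin, 50 μM IPTG and 0.2% rhamnose, with or without 25 μg/mL kanamycin, incubated overnight at 37°C or 30°C. The E. coli BL21(DE3) library had all eight P1ex-region intron nucleotides randomised, the intron placed in the knt kanamycin-resistance gene on pET-22b(+). DiMSum fitness is the error-weighted combination of replicate fold changes, kanamycin against none, normalised to wild type.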

± gives the uncertainty stated by the source.

As for CGGAAGCAAUAUUACGGCUC, the “self-splicing fitness (ln)” value is, setting by setting: (30 °C) -4.04 ± 0.25; (37 °C) -2.51 ± 0.24. For CGGAAGCAAUAUUACGGCUG, in that order: -1.79 ± 0.094 and -1.36 ± 0.099. For CGGAAGCAAUAUUACGGGUA the same measures were -3.4 ± 0.23 and -2.07 ± 0.14.

With CGGAAGCAAUAUUACGGUAU, the “self-splicing fitness (ln)” value (30 °C) was -4.04 ± 0.16 and the “self-splicing fitness (ln)” value (37 °C) was -1.95 ± 0.098. For CGGAAGCAAUAUUACGGUCU the same measures were -1.38 ± 0.074 and -0.791 ± 0.099.

CGGAAGCAAUAUUACGUAAG: the “self-splicing fitness (ln)” value was -0.619 ± 0.072 (30 °C) and 0.241 ± 0.1 (37 °C). Take CGGAAGCAAUAUUACGUACU: the “self-splicing fitness (ln)” value is -0.218 ± 0.071 (30 °C) and -0.296 ± 0.096 (37 °C). Turning to CGGAAGCAAUAUUACGUAUC, the “self-splicing fitness (ln)” value reads like this: (30 °C) -3.82 ± 0.21; (37 °C) -2.81 ± 0.22. In the case of CGGAAGCAAUAUUACGUCAA, the “self-splicing fitness (ln)” value (37 °C) was -3.55 ± 0.42. Same read-out and setting: then CGGAAGCAAUAUUACGUCGU, with -2.21 ± 0.36. Take CGGAAGCAAUAUUACGUGGG: the “self-splicing fitness (ln)” value reads like this: (30 °C) -3.23 ± 0.13; (37 °C) -2.85 ± 0.18. As for CGGAAGCAAUAUUACGUUAC, the “self-splicing fitness (ln)” value (37 °C) was -2.57 ± 0.2. On to CGGAAGCAAUAUUACGUUAG, for which the “self-splicing fitness (ln)” value reads like this: (30 °C) -1.41 ± 0.061; (37 °C) -0.697 ± 0.077. For CGGCAGCAAUAUUACGAAAC, in that order: -3.19 ± 0.33 and -2.93 ± 0.25. For CGGCAGCAAUAUUACGAAAU, the “self-splicing fitness (ln)” value is, setting by setting: (30 °C) -3.82 ± 0.33; (37 °C) -2.76 ± 0.33. Consider CGGCAGCAAUAUUACGAACU, for which the “self-splicing fitness (ln)” value runs as follows: (30 °C) -1.15 ± 0.44; (37 °C) -0.121 ± 0.34.

As for CGGCAGCAAUAUUACGAUCA, the “self-splicing fitness (ln)” value by setting is: (30 °C) -1.08 ± 0.11; (37 °C) -0.194 ± 0.11. For CGGCAGCAAUAUUACGAUGC, in that order: -3.41 ± 0.29 and -1.6 ± 0.32. As for CGGCAGCAAUAUUACGAUGG, the “self-splicing fitness (ln)” value was -0.549 ± 0.083 (30 °C) and -0.741 ± 0.093 (37 °C).

Regarding CGGCAGCAAUAUUACGCAGC, the “self-splicing fitness (ln)” value reads like this: (30 °C) -3.98 ± 0.34; (37 °C) -1.71 ± 0.2. For CGGCAGCAAUAUUACGCAGG, the “self-splicing fitness (ln)” value is -2.02 ± 0.093 (30 °C) and -1.33 ± 0.12 (37 °C). For CGGCAGCAAUAUUACGCCAU, in that order: -3.11 ± 0.2 and -1.6 ± 0.16.

On to CGGCAGCAAUAUUACGCCGU, for which the “self-splicing fitness (ln)” value is, setting by setting: (30 °C) -3.6 ± 0.29; (37 °C) -2.29 ± 0.19.

As for CGGCAGCAAUAUUACGCGUG, the “self-splicing fitness (ln)” value (30 °C) was -1.47 ± 0.1 and the “self-splicing fitness (ln)” value (37 °C) was -0.594 ± 0.11. On to CGGCAGCAAUAUUACGCUGA, for which the “self-splicing fitness (ln)” value (30 °C) is -3.18 ± 0.17 and the “self-splicing fitness (ln)” value (37 °C) is -2.17 ± 0.23. As for CGGCAGCAAUAUUACGCUUU, the “self-splicing fitness (ln)” value is -2.9 ± 0.2 (30 °C) and -1.62 ± 0.13 (37 °C). In the case of CGGCAGCAAUAUUACGGAAC, the “self-splicing fitness (ln)” value is -2.88 ± 0.16 (30 °C) and -3.76 ± 0.33 (37 °C). For CGGCAGCAAUAUUACGGAAU, in that order: -5.35 ± 0.41 and -1.42 ± 0.13. With CGGCAGCAAUAUUACGGUAA, the “self-splicing fitness (ln)” value by setting is: (30 °C) -2.56 ± 0.13; (37 °C) -2.33 ± 0.13.

Regarding CGGCAGCAAUAUUACGUAAA, the “self-splicing fitness (ln)” value by setting is: (30 °C) -2.71 ± 0.12; (37 °C) -1.84 ± 0.12. For CGGCAGCAAUAUUACGUACG, in that order: -3.05 ± 0.17 and -1.31 ± 0.16.

For the sequence CGGCAGCAAUAUUACGUCCA, the “self-splicing fitness (ln)” value runs as follows: (30 °C) -0.34 ± 0.1; (37 °C) -0.521 ± 0.14.

For the sequence CGGCAGCAAUAUUACGUGAA, the “self-splicing fitness (ln)” value is -2.25 ± 0.11 (30 °C) and -1.65 ± 0.15 (37 °C). For CGGCAGCAAUAUUACGUGAU, in that order: -3.11 ± 0.12 and -1.57 ± 0.13. On to CGGCAGCAAUAUUACGUGGC, for which the “self-splicing fitness (ln)” value is -3.19 ± 0.33 (30 °C) and -2.02 ± 0.23 (37 °C).

Consider CGGCAGCAAUAUUACGUUCG, for which the “self-splicing fitness (ln)” value (37 °C) was -1.23 ± 0.16. The same measure, in the same setting: then CGGGAGCAAUAUUACGAAUC, with -0.75 ± 0.23. As to CGGGAGCAAUAUUACGACGU, the “self-splicing fitness (ln)” value reads like this: (30 °C) -3.47 ± 0.33; (37 °C) -1.16 ± 0.18. For CGGGAGCAAUAUUACGAGCU, in that order: -3.18 ± 0.41 and -1.89 ± 0.38.
